Experimental data taken from ChEMBL document CHEMBL1145552, “Substrate specificity and diastereoselectivity of strictosidine glucosidase, a key enzyme in monoterpene indole alkaloid biosynthesis” (Bioorg Med Chem Lett, 2008).

What was measured:
[1] = target: T1, Strictosidine beta-glucosidase (Catharanthus roseus) (UniProt Q9M7N7); assay: Ratio of relative Vmax to K0.5 of Catharanthus roseus strictosidine glucosidase
T1 sequence (whole entry): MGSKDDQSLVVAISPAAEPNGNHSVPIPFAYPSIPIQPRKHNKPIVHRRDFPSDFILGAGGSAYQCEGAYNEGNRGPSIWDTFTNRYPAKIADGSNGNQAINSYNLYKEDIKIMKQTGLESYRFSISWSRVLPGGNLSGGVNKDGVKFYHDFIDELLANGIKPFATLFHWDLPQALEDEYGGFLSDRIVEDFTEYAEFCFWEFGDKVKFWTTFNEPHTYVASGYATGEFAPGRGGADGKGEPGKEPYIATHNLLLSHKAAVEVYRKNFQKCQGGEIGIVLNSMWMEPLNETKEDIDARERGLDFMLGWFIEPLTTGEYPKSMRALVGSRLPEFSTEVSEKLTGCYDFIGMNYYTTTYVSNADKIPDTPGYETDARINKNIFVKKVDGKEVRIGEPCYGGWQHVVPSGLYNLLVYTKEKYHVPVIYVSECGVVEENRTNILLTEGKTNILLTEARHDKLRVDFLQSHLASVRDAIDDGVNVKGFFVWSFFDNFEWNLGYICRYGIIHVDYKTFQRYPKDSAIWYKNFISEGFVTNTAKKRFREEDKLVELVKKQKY

[2] = substrate: C=C[C@H]1[C@H](O[C@@H]2O[C@H](CO)[C@@H](O)[C@H](O)[C@H]2O)OC=C(C(=O)OC)[C@H]1C[C@@H]1NCCc2c1[nH]c1c(C)cccc21; assay: (§1) Activity of Catharanthus roseus strictosidine glucosidase
[3] = substrate: C=C[C@H]1[C@H](O[C@@H]2O[C@H](CO)[C@@H](O)[C@H](O)[C@H]2O)OC=C(C(=O)OC)[C@H]1C[C@@H]1NCCc2c1[nH]c1cc(C)ccc21; assay: as §1
[4] = substrate: C=C[C@H]1[C@H](O[C@@H]2O[C@H](CO)[C@@H](O)[C@H](O)[C@H]2O)OC=C(C(=O)OC)[C@H]1C[C@@H]1NCCc2c1[nH]c1cc(F)ccc21; assay: as §1
[5] = substrate: C=C[C@H]1[C@H](O[C@@H]2O[C@H](CO)[C@@H](O)[C@H](O)[C@H]2O)OC=C(C(=O)OC)[C@H]1C[C@@H]1NCCc2c1[nH]c1cc(OC)ccc21; assay: as §1
[6] = substrate: C=C[C@H]1[C@H](O[C@@H]2O[C@H](CO)[C@@H](O)[C@H](O)[C@H]2O)OC=C(C(=O)OC)[C@H]1C[C@@H]1NCCc2c1[nH]c1ccc(C)cc21; assay: as §1
[7] = substrate: C=C[C@H]1[C@H](O[C@@H]2O[C@H](CO)[C@@H](O)[C@H](O)[C@H]2O)OC=C(C(=O)OC)[C@H]1C[C@@H]1NCCc2c1[nH]c1ccc(F)cc21; assay: as §1
[8] = substrate: C=C[C@H]1[C@H](O[C@@H]2O[C@H](CO)[C@@H](O)[C@H](O)[C@H]2O)OC=C(C(=O)OC)[C@H]1C[C@@H]1NCCc2c1[nH]c1ccc(OC)cc21; assay: as §1
[9] = substrate: C=C[C@H]1[C@H](O[C@@H]2O[C@H](CO)[C@@H](O)[C@H](O)[C@H]2O)OC=C(C(=O)OC)[C@H]1C[C@@H]1NCCc2c1[nH]c1cccc(C)c21; assay: as §1
[10] = substrate: C=C[C@H]1[C@H](O[C@@H]2O[C@H](CO)[C@@H](O)[C@H](O)[C@H]2O)OC=C(C(=O)OC)[C@H]1C[C@@H]1NCCc2c1[nH]c1ccccc21; assay: as §1

## C=C[C@H]1[C@H](O[C@@H]2O[C@H](CO)[C@@H](O)[C@H](O)[C@H]2O)OC=C(C(=O)OC)[C@H]1C[C@@H]1NCCc2c1[nH]c1ccc(F)cc21
[1]
  Ratio: 0.7 min⁻¹

## C=C[C@H]1[C@H](O[C@@H]2O[C@H](CO)[C@@H](O)[C@H](O)[C@H]2O)OC=C(C(=O)OC)[C@H]1C[C@@H]1NCCc2c1[nH]c1cc(F)ccc21
[1]
  Ratio: 0.7 min⁻¹

## C=C[C@H]1[C@H](O[C@@H]2O[C@H](CO)[C@@H](O)[C@H](O)[C@H]2O)OC=C(C(=O)OC)[C@H]1C[C@@H]1NCCc2c1[nH]c1cc(C)ccc21
[1]
  Ratio: 0.5 min⁻¹

## C=C[C@H]1[C@H](O[C@@H]2O[C@H](CO)[C@@H](O)[C@H](O)[C@H]2O)OC=C(C(=O)OC)[C@H]1C[C@@H]1NCCc2c1[nH]c1ccccc21
[1]
  Ratio: 1 min⁻¹

## C=C[C@H]1[C@H](O[C@@H]2O[C@H](CO)[C@@H](O)[C@H](O)[C@H]2O)OC=C(C(=O)OC)[C@H]1C[C@@H]1NCCc2c1[nH]c1cccc(C)c21
[1]
  Ratio: 0.2 min⁻¹

## C=C[C@H]1[C@H](O[C@@H]2O[C@H](CO)[C@@H](O)[C@H](O)[C@H]2O)OC=C(C(=O)OC)[C@H]1C[C@@H]1NCCc2c1[nH]c1ccc(OC)cc21
[1]
  Ratio: 0.3 min⁻¹

## C=C[C@H]1[C@H](O[C@@H]2O[C@H](CO)[C@@H](O)[C@H](O)[C@H]2O)OC=C(C(=O)OC)[C@H]1C[C@@H]1NCCc2c1[nH]c1cc(OC)ccc21
[1]
  Ratio: 0.2 min⁻¹

## C=C[C@H]1[C@H](O[C@@H]2O[C@H](CO)[C@@H](O)[C@H](O)[C@H]2O)OC=C(C(=O)OC)[C@H]1C[C@@H]1NCCc2c1[nH]c1ccc(C)cc21
[1]
  Ratio: 0.6 min⁻¹

## C=C[C@H]1[C@H](O[C@@H]2O[C@H](CO)[C@@H](O)[C@H](O)[C@H]2O)OC=C(C(=O)OC)[C@H]1C[C@@H]1NCCc2c1[nH]c1c(C)cccc21
[1]
  Ratio: 0.3 min⁻¹

B1: Strictosidine beta-glucosidase (Catharanthus roseus), Q9M7N7 (protein)
chain: T1 sequence (whole entry)
[2]
  Km: 140 µM
  Vmax: 0.016 mM/min
[3]
  Km: 92 µM
  Vmax: 0.017 mM/min
[4]
  Km: 120 µM
  Vmax: 0.032 mM/min
[5]
  Km: 430 µM
  Vmax: 0.037 mM/min
[6]
  Km: 71 µM
  Vmax: 0.016 mM/min
[7]
  Km: 150 µM
  Vmax: 0.038 mM/min
[8]
  Km: 370 µM
  Vmax: 0.035 mM/min
[9]
  Km: 220 µM
  Vmax: 0.018 mM/min
[10]
  Km: 220 µM
  Vmax: 0.078 mM/min
